Results: the supplement of paper PMC10065799, “High-throughput profiling of sequence recognition by tyrosine kinases and SH2 domains using bacterial peptide display” (eLife, 2023)

These sequences were tested against FGFR3 (UniProt P22607) (assay: phosphorylation enrichment, bacterial display (enrichment ratio); higher = better substrate or ligand; peptides without Tyr show the background).
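Note: 11-residue human phosphosite peptides and single-mutation variants displayed on the E. coli surface, counted by deep sequencing, each peptide's frequency after selection divided by its frequency in the unselected input library; frequency after pTyr selection over input frequency; kinase dosed for 20-30% of maximal phosphorylation in three min.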

Chain of FGFR3 (P22607 whole entry, looked up): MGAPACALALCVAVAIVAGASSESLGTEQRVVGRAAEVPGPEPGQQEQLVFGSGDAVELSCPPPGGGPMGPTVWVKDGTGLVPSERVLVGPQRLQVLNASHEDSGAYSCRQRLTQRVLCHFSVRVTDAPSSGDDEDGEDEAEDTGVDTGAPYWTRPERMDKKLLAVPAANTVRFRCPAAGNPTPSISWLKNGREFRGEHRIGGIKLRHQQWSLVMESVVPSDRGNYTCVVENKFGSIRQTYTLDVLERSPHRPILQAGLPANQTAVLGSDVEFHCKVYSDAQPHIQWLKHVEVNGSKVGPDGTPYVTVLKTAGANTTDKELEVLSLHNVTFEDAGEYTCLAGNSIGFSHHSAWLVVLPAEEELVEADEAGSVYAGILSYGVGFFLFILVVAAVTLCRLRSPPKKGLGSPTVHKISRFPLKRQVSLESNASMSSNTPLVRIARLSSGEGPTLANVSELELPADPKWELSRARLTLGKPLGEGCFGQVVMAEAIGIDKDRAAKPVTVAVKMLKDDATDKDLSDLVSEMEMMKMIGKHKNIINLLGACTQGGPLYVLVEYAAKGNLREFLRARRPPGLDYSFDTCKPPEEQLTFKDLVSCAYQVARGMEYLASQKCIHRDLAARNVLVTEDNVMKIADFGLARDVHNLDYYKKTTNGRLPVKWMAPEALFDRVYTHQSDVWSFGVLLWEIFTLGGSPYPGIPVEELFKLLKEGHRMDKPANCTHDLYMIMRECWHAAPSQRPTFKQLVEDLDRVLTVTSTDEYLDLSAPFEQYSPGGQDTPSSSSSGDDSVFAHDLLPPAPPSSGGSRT

Sequence | phosphorylation enrichment
SARFRYLMAEK [LDHB_Y173] | 0.469
LLILEYAKFGS [RET_Y806_V804L_YF] | 1.38
SGVNKYSTAFG [GJB3_Y16] | 0.454
LERFIYNREEF [HLA-DPB1_Y59_F64Y_YF] | 1.79
NSGFFYKTAEE [CCT6B_Y250] | 0.74
HGEAFYSEVKP [PAK5_Y182_YF] | 2.49
QDDTVYMGKVT [DCTN1_Y1244] | 1.17
TQPSPYAVFRF [RPGRIP1_Y823_YF] | 0.8
LGNIVYSSLCG [BCOR_Y90_P85L] | 1.54
LHRHAYPEQRQ [DPPA2_Y127] | 0.577
RLLVVYHWTQR [HBD_Y36_P37H] | 0.75
RKEAQYMLENE [SLC16A6_Y224] | 0.827
TGEKPYECVQC [ZNF24_Y335] | 0.531
FIGVTYKNKED [PDGFRA_Y993_E996K_YF] | 0.743
CTTIHYNYMCI [TP53_Y234_N239I] | 1.55
TTGGFYSFGGG [KRT24_Y120_A115T_YF] | 0.446
KAPVDYIRKLQ [MITF_Y360_S357P] | 0.423

Sequence | phosphorylation enrichment
IFCIQYNICAF [MYH4_Y820_R823C] | 0.807
GGDQPYSGAGD [TYRO3_Y828_R824G] | 0.698
NGEDLYAGSTD [XRCC1_Y515_P514L] | 0.613
PGVNYYFQVSA | 3.16
ALAHKHHGGGG [HBB_Y146_Y146H] | 0.539
VEKGSYSALLA [ABCC2_Y845] | 0.456
FDEFRYRSFIK [CFTR_Y517_V520F_YF] | 0.526
RTEAQYRFIFM [PTPN11_Y511_Q506R_YF] | 1.03
ETKTPYTVILI [SBDS_Y128_R126T] | 0.794
RLVTRYIYNRE [HLA-DQB1_Y62_Y58L] | 0.739
SLLTDCSPQLQ [OTC_Y345_Y345C] | 0.707
SSREEYFIGGG [GYPC_Y126_K124E] | 1.94
LKRCQYVTEKV [ALDOA_Y204] | 0.924
PCPANYFAFKI [FAM3D_Y65] | 7.65
IYHLSYIHNCE [PDE6B_Y227_L228I] | 2.16
GVASDYKCVDP [VPS13B_Y1991_I1994V] | 0.821

Each sequence was assayed on Fer (mouse) in the same assay as above.

Sequence | phosphorylation enrichment
SARFRYLMAEK [LDHB_Y173] | 0.348
LLILEYAKFGS [RET_Y806_V804L_YF] | 0.699
SGVNKYSTAFG [GJB3_Y16] | 0.394
LERFIYNREEF [HLA-DPB1_Y59_F64Y_YF] | 0.719
NSGFFYKTAEE [CCT6B_Y250] | 0.486
HGEAFYSEVKP [PAK5_Y182_YF] | 12.3
QDDTVYMGKVT [DCTN1_Y1244] | 2.72
TQPSPYAVFRF [RPGRIP1_Y823_YF] | 9.31
LGNIVYSSLCG [BCOR_Y90_P85L] | 1.74
LHRHAYPEQRQ [DPPA2_Y127] | 0.532
RLLVVYHWTQR [HBD_Y36_P37H] | 0.659
RKEAQYMLENE [SLC16A6_Y224] | 0.445
TGEKPYECVQC [ZNF24_Y335] | 1.87
FIGVTYKNKED [PDGFRA_Y993_E996K_YF] | 0.417
CTTIHYNYMCI [TP53_Y234_N239I] | 1.05
TTGGFYSFGGG [KRT24_Y120_A115T_YF] | 1.55
KAPVDYIRKLQ [MITF_Y360_S357P] | 0.365

Sequence | phosphorylation enrichment
IFCIQYNICAF [MYH4_Y820_R823C] | 0.538
GGDQPYSGAGD [TYRO3_Y828_R824G] | 0.436
NGEDLYAGSTD [XRCC1_Y515_P514L] | 0.52
PGVNYYFQVSA | 0.907
ALAHKHHGGGG [HBB_Y146_Y146H] | 0.419
VEKGSYSALLA [ABCC2_Y845] | 0.45
FDEFRYRSFIK [CFTR_Y517_V520F_YF] | 0.556
RTEAQYRFIFM [PTPN11_Y511_Q506R_YF] | 0.546
ETKTPYTVILI [SBDS_Y128_R126T] | 1.06
RLVTRYIYNRE [HLA-DQB1_Y62_Y58L] | 0.408
SLLTDCSPQLQ [OTC_Y345_Y345C] | 0.522
SSREEYFIGGG [GYPC_Y126_K124E] | 0.486
LKRCQYVTEKV [ALDOA_Y204] | 0.794
PCPANYFAFKI [FAM3D_Y65] | 1.12
IYHLSYIHNCE [PDE6B_Y227_L228I] | 1.67
GVASDYKCVDP [VPS13B_Y1991_I1994V] | 0.548

The sequences below were run against Fes (UniProt P07332) in the same assay as above.
Chain of Fes (P07332 whole entry, looked up): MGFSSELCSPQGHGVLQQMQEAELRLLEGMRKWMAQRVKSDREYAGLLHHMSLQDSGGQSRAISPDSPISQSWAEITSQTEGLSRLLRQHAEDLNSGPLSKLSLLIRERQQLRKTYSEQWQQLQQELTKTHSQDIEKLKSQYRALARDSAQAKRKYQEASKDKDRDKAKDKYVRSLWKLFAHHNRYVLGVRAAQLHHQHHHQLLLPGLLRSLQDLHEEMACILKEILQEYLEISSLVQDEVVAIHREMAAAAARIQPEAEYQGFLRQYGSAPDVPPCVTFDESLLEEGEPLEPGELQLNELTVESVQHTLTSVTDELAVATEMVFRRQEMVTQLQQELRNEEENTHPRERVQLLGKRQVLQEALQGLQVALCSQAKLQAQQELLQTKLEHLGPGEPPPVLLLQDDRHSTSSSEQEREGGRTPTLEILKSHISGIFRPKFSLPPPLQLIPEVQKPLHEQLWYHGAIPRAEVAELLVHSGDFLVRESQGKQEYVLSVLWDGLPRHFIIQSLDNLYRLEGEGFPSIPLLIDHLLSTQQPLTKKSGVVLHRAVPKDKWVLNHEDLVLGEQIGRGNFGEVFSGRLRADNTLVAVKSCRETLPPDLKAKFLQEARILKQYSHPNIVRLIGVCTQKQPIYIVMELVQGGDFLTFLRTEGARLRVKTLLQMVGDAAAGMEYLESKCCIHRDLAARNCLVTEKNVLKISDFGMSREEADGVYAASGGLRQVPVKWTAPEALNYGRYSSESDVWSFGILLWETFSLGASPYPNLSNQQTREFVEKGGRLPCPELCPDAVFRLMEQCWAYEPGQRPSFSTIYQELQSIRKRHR

Sequence | phosphorylation enrichment
SARFRYLMAEK [LDHB_Y173] | 0.652
LLILEYAKFGS [RET_Y806_V804L_YF] | 1.52
SGVNKYSTAFG [GJB3_Y16] | 0.614
LERFIYNREEF [HLA-DPB1_Y59_F64Y_YF] | 1.49
NSGFFYKTAEE [CCT6B_Y250] | 1.41
HGEAFYSEVKP [PAK5_Y182_YF] | 1.04
QDDTVYMGKVT [DCTN1_Y1244] | 2.4
TQPSPYAVFRF [RPGRIP1_Y823_YF] | 0.805
LGNIVYSSLCG [BCOR_Y90_P85L] | 2.15
LHRHAYPEQRQ [DPPA2_Y127] | 0.967
RLLVVYHWTQR [HBD_Y36_P37H] | 1.58
RKEAQYMLENE [SLC16A6_Y224] | 1.32
TGEKPYECVQC [ZNF24_Y335] | 0.7
FIGVTYKNKED [PDGFRA_Y993_E996K_YF] | 0.922
CTTIHYNYMCI [TP53_Y234_N239I] | 1
TTGGFYSFGGG [KRT24_Y120_A115T_YF] | 0.847
KAPVDYIRKLQ [MITF_Y360_S357P] | 0.616

Sequence | phosphorylation enrichment
IFCIQYNICAF [MYH4_Y820_R823C] | 1.53
GGDQPYSGAGD [TYRO3_Y828_R824G] | 0.791
NGEDLYAGSTD [XRCC1_Y515_P514L] | 1.05
PGVNYYFQVSA | 2.14
ALAHKHHGGGG [HBB_Y146_Y146H] | 0.593
VEKGSYSALLA [ABCC2_Y845] | 0.535
FDEFRYRSFIK [CFTR_Y517_V520F_YF] | 0.764
RTEAQYRFIFM [PTPN11_Y511_Q506R_YF] | 1.23
ETKTPYTVILI [SBDS_Y128_R126T] | 1.22
RLVTRYIYNRE [HLA-DQB1_Y62_Y58L] | 0.822
SLLTDCSPQLQ [OTC_Y345_Y345C] | 1.06
SSREEYFIGGG [GYPC_Y126_K124E] | 0.909
LKRCQYVTEKV [ALDOA_Y204] | 1.75
PCPANYFAFKI [FAM3D_Y65] | 2.29
IYHLSYIHNCE [PDE6B_Y227_L228I] | 1.38
GVASDYKCVDP [VPS13B_Y1991_I1994V] | 1.16

These sequences were tested against Fyn (UniProt P06241) in the same assay as above.
Chain of Fyn (P06241 whole entry, looked up): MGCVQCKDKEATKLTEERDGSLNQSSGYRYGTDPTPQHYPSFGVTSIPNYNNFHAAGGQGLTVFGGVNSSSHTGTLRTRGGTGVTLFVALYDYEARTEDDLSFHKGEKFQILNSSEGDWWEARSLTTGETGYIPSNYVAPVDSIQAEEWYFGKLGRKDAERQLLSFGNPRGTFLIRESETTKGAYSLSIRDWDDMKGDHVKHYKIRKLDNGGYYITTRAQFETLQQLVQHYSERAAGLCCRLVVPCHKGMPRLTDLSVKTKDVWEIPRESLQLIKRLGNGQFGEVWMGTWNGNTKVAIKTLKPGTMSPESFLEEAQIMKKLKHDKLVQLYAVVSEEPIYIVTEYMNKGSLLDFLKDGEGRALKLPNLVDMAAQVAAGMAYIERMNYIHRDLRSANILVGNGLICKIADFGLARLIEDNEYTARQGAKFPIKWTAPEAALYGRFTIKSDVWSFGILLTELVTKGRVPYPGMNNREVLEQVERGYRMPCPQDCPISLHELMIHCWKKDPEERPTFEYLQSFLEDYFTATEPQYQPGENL

Sequence | phosphorylation enrichment
SARFRYLMAEK [LDHB_Y173] | 0.365
LLILEYAKFGS [RET_Y806_V804L_YF] | 1.01
SGVNKYSTAFG [GJB3_Y16] | 0.437
LERFIYNREEF [HLA-DPB1_Y59_F64Y_YF] | 1.08
NSGFFYKTAEE [CCT6B_Y250] | 0.462
HGEAFYSEVKP [PAK5_Y182_YF] | 2.95
QDDTVYMGKVT [DCTN1_Y1244] | 0.958
TQPSPYAVFRF [RPGRIP1_Y823_YF] | 10.7
LGNIVYSSLCG [BCOR_Y90_P85L] | 4.98
LHRHAYPEQRQ [DPPA2_Y127] | 0.502
RLLVVYHWTQR [HBD_Y36_P37H] | 0.46
RKEAQYMLENE [SLC16A6_Y224] | 0.642
TGEKPYECVQC [ZNF24_Y335] | 0.515
FIGVTYKNKED [PDGFRA_Y993_E996K_YF] | 0.495
CTTIHYNYMCI [TP53_Y234_N239I] | 0.487
TTGGFYSFGGG [KRT24_Y120_A115T_YF] | 4.22
KAPVDYIRKLQ [MITF_Y360_S357P] | 0.338

Sequence | phosphorylation enrichment
IFCIQYNICAF [MYH4_Y820_R823C] | 0.421
GGDQPYSGAGD [TYRO3_Y828_R824G] | 0.453
NGEDLYAGSTD [XRCC1_Y515_P514L] | 0.66
PGVNYYFQVSA | 0.611
ALAHKHHGGGG [HBB_Y146_Y146H] | 0.414
VEKGSYSALLA [ABCC2_Y845] | 0.332
FDEFRYRSFIK [CFTR_Y517_V520F_YF] | 0.467
RTEAQYRFIFM [PTPN11_Y511_Q506R_YF] | 0.312
ETKTPYTVILI [SBDS_Y128_R126T] | 0.483
RLVTRYIYNRE [HLA-DQB1_Y62_Y58L] | 0.673
SLLTDCSPQLQ [OTC_Y345_Y345C] | 0.454
SSREEYFIGGG [GYPC_Y126_K124E] | 0.574
LKRCQYVTEKV [ALDOA_Y204] | 0.823
PCPANYFAFKI [FAM3D_Y65] | 1.14
IYHLSYIHNCE [PDE6B_Y227_L228I] | 2.78
GVASDYKCVDP [VPS13B_Y1991_I1994V] | 0.504
